Results from doi:10.1101/2023.09.06.556503 (bioRxiv, 2023).

Legend:
[1] = biological target: Biotinylated SARS-CoV-2 (Wuhan) RBD, held on the SPR chip (SARS-CoV-2 (Wuhan), UniProt P0DTC2, biotin (EZ-Link Sulfo-NHS-LC-biotin); Lys15 within the N-terminal AviTag is named as the biotinylation site); assay: SPR; conditions: both partners purified
[2] = biological target: SARS-CoV-2 (Wuhan) receptor-binding domain, soluble monovalent RBD (RBD-H) (SARS-CoV-2 (Wuhan), UniProt P0DTC2); assay: SPR; conditions: both partners purified

| Binder | Kd [1] | binding result [1] | binding result [2] |
| --- | --- | --- | --- |
| IgG1 FD-11A antibody (antibody, V domains shown, also called FD-11A IgG; source: ExpiCHO, transfected, purified (MabSelect SuRe); copies: 2 + 2) VH: EVQLVESGGGVVQPGRSLRLSCAASGFTFSSYGMHWVRQAPGKGLEWVAVIWYDGSNKYYADSVKGRFTISRDNSKNTLYLQMNSLRAEDTAVYYCAKGPDILTGYYNYYYYGMDVWGQGTMVTVSS VL: QSVLTQPPSVSGAPGQRVTISCTGSSSNIGAGYDVHWYQQLPGTAPKLLIYGNSNRPSGVPDRFSGSKSGTSASLAITGLQAEDEADYYCQSYDSSLSGFYVVFGGGTKLTVL | 1230 nM | – | – |
| REGN10987 antibody (IgG1) (antibody, V domains shown) VH: QVQLVESGGGVVQPGRSLRLSCAASGFTFSNYAMYWVRQAPGKGLEWVAVISYDGSNKYYADSVKGRFTISRDNSKNTLYLQMNSLRTEDTAVYYCASGSDYGDYLLVYWGQGTLVTVSS VL: QSALTQPASVSGSPGQSITISCTGTSSDVGGYNYVSWYQQHPGKAPKLMIYDVSKRPSGVSNRFSGSKSGNTASLTISGLQSEDEADYYCNSLTSISTWVFGGGTKLTVL | – | binds | – |
| FD-5D antibody (IgG1) (antibody, V domains shown, source: ExpiCHO, transfected, purified (MabSelect SuRe); copies: 2 + 2) VH: EVQLVESGGGLVQPGGSLRLSCAASGFTFSSYSMNWVRQAPGKGLEWVSYISSSSSTIYYADSVKGRFTISRDNAKNSLYLQMNSLRAEDTAVYYCASPGGITAAGTSVLFGYYGMDVWGQGTTVTVSS VL: not shown | – | binds | binds |
| FI-3A antibody (IgG1) (antibody, V domains shown, source: ExpiCHO, transfected, purified (MabSelect SuRe); copies: 2 + 2) VH: EVQLLESGGGLIQPGGSLRLSCAASGFTVSSNYMSWVRQAPGKGLEWVSVIYSGGSTYYADSVKGRFTISRDNSKNTLYLQMNSLRAEDTAVYYCARDHVRPGMNIWGQGTMVTVSS VL: not shown | – | binds | binds |
| EY-6A antibody (IgG1) (antibody, V domains shown, copies: 2 + 2) VH: EVQLVESGGGVVQPGRSLRLSCAASAFTFSSYDMHWVRQAPGKGLEWVAVISYDGSNKYYADSVKGRFTISRDNSKNTLYLQMNSLRAEDTAVYYCAKDGGKLWVYYFDYWGQGTLVTVSS VL: not shown | – | binds | binds |
